The nature of the data set: label from the status in PepcDB records.
Consider “MMTPEQIATVMTGKVEAAGKGRHEAVLASPMIQNHAPFLHLADDGALICAWFGGTLEGKSDISIFTSVLAAGSNKWGEPQRLSFDPDHSEQNPVLFAAPGNTLLLFHTSQPSGNQDECRIRMAEVSRDASDPTRLTAGEGLYLDLPRGCFVRAPLTVRADGAWLLPIFRCIQRPGQKWNGSHDRAAVGISEDCGKSWRLEDIDQSTGCVHMSPLVIGDEKLAAVFRRRQADFVYRTESADGGRTWSAPQATDVPNNNSSIAAIRLNDGRIAMICNPTNAAMSSDRRASLYDELGEDDDRPDANPDGGCVPIWGVPRAPVTVCISEDGAKSFPQRITIEDGPGTCLSNNSIDGHNKEMSYPWLLEGADGSLHIAYTYYRRAIKYVRLAPGWARAADGR”, for which the protein production entry is listed as “failed”.

Take “MMTRNKEFPMQMQSVTPARLVTTGLAFGESPRWHGGRLWVCNWGTSEIIATDAHGNREIMLIVPAVLPYSIDWLQDGRLLVVSGREGLLLRQEVDGKLVTHADLRGLSKSPWNEIVVDGRGNIYVNGGGPAPAAGEYFGPGTVVLITADGAVRQVADDIAFANGMAVTPDNKTLILAESHGNRLTAFDIAADGSLSNRRAWADLDGYPDGICLDAEGAVWYADVPNKHCVRVREGGEVLQTVTVDRGCFACMLGGADRRTLFIVAAEWRGFEHMVGDARTGQVLSVDAPAPGVGWP”: the protein production result is “failed”.

“MMTTLQILFWLSLFLVFYTHLGYGILLYMLVKLKELFVKPVRRQLPPDKRLPDVTLFITAFNEEEVVDEKMRNCLGLDYPADKLHIVWTTDGSNDSTNQRLEDWPQATVHFQPLRQGKTAAMTRGMMLVDTPLVVFTDANTMLNREAIREIVRAFEDPKVGCVAGEKRIAVQEKDGAAAGGEGIYWKYESTLKALDARLYSAVGAAGELFAVRRELFTVMEPDTLLDDFILSLRIAMQGYKIAYCTQAYAIESGSADIREEQKRKVRIAAGGLQSIWRLRELLNPFRYGVLTFQYVSHRVLRWSLAPVLLFALLPLNIAILLAGGSPVCYGTILALQLLFYIMGGWGYYLSTRQVKNKLLFIPYYFLFMNINVMKGVNYLRKKKGTGAWEKAKRTKTESLNQ”: the protein production entry was “failed”.

Turning to “MMTTRNGSLRFFNHTFSFYDEATCVVREEELQRELMPRHVSFILDGNRRWAKRDGLTTAQGHEAGTKRIIEIAERIGEETRKEVRVSVIGNKTKIPESLLKEIHEIEEATKATRISISSWQ”, the protein production result is given as “failed”.

In the case of “MMVDTGVDHRAVSSHDGPDAGRRVFGAADPRFACVVRAFASMFPGRRFGGGALAVYLDGQPVVDVWKGWADRAGWVPWSADSAPMVFSATKGMTATVIHRLADRGLIDYEAPVAEYWPAFGANGKATLTVRDVMRHQAGLSGLRGATQQDLLDHVVMEERLAAAVPGRLLGKSAYHALTFGWLMSGLARAVTGKDMRLLFREELAEPLDTDGLHLGRPPADAPTRVAEIIMPQDIAANAVLTCAMRRLAHRFSGGFRSMYFPGAIAAVQGEAPLLDAEIPAANGVATARALARMYGAIANGGEIDGIRFLSRELVTGLTRNRRQVLPDRNLLVPLNFHLGYHGMPIGNVMPGFGHVGLGGSIGWTDPETGVAFALVHNRLLSPLVMTDHAGFVGIYHLIRQAAAQARKRGYQPVTPFGAPYSEPGAAAG”, the protein production result was “failed”.

As for “MMVKDGLRYWPLGMAFLLGVGLQPVRAAEMFLPPTGLAQEELIALTEVDSLAQARLPQSEGSAIDLLPLPPQPTAAVDPPREAPASLPTTIEVKGDSPAPPVEPSPPTTDNSPGVPTTPQLAAEQAVQEARLALLREGDRYWQLGDLTTARTYYQKAKADLNVPPPHVIPPAVLEISQLPPAAQVYWREVQSGSQLYTAQAVPLQLLVEQFPEFIPAQVRFGEFLAQQGSLKEACAHLEKAASLYPDQPDIQRGLITLYDRQQQWLEAALAAQRFALLNPDHPATPEFEQLAAERMQRFRRRLQGQLREGMVVGALTGLVGVALTGNPLLSLDSIQMMTLMMQGESALGRSAARNISRQVKLLEDAAVQTYVNEVGQRLAKVAGRNEFAYEFFVIKDNDLNAFALPGGKIFVNSGAILKASTEAELAGLLAHEIAHTVLSHGFRLMTQGTATANLTRLLPAGGYVTGIVVTSYSREMEREADILGTQILARAGYAADGLLNLMHTLKKEYRNQEPPLPWFSTHPPTNERIRYIRGLMRDRGYTPFAFEGLERHQRIQAHLRTLVDPPNAPKSKRETAKTPQ”, the protein production result was “failed”.

Take “MNAIGLVGFAFVGAAKAIEERYDVFGVTVVGVMTALGGGTTRDLLLNRVPNSLQSPGEVALSLLGVTAAVLFVHFLDDGHQHPVVLTADAIGLAAFTTTGALLGQQAGLPVFAVVALATVNAAGGGAISDLLLGRTPFILREDFYASCAVIGGLAFWALAQIGVSVSVASAGCALAVLLARGLGIGRGWSLPTVQAWERRDAQ”: the protein production entry is listed as “failed”.

Take “MNAIREGVRALCAEFDAAYWRRIDEQRGFPEAFVKALTDAGWLSAMIPEEYGGSGLGLAEASVILEEVNRCGGNSGTVHGQMYNMFTLLRNGSEAQKRFYLPKLASGELRLQSMGVTEPTTGTDTTKIKTTAVRKGDRYVINGQKVWISRIQHSDLMILLARTTPLAEVKRKSEGMSIFLVDLREAIGKGLTVQPIANMVNHETNELFFDNLEIPADSLIGEEGKGFRYILDGLNAERTLIAAECIGDGRWFIDKASHYARDRVVFGRPIGQNQGVQFPIAEAHIEVEAADLMRWRACQEYDAGLNAGASANMAKYLAAKASWEAANACLQTHGGFGFACEYDVERKFRETRLYQVAPISTNLILSYVAEHLLELPRSF”: the protein production result was “failed”.

For the sequence “MNALGTKARVVGTGVLVLGLLSGCTTAAPSPSSPTPTQATPTQAASSNAGPGPASSAAVPAQQSAEAKLSPEAQIETDRLLILAAKANDAAKVRELIAAGGNVNAKDEIQDSAFLYAGAEGFNEVLQLTLAAGADVRSTNRYGGTALIPASEHGHTETVRILIAAGVPVDHVNNLGWTAMQEAILPNNGGPNQQDVVRQLLAAGATPDIRDPQGRTALQNAERLGFTEIAALIRNR”, the protein production entry is given as “failed”.

Take “MNALVLYFDGKCPFCAAEMRRLSEWDTQHQLAFVDIAQEGFDCSSLNVDLAALNRELHGRTSDGRLLVGIDCMIAAYTLAGHGWLVLPLRVPGLRRVLANLYRAFAGNRYTLSRWLGYGTATACDGDSCGTGNPFLSGKELTDAAEDRPARRDSRQLAVRWMYAAAIAHLLVGAAMPWAADATLFGTYHRIVEQSFWSGAAPAQARAQQVWWIALFGATLQCSAIWMLALVHLGNRTRHRMAWGWLLVGLLVWAPQDLLISLQAHVWPHVLVDAVALLTMIPPLLYLWRKDAA”: the protein production result is listed as “failed”.

As for “MNANQFLKAVSQLQGWRECAFLLALAERSFPNYALFADAVGLKTGGKMRQLLDLAWDMLQKDVADAAIPQLLSKLETLCPNVDEYDAYGVYPAFDFCQLLEQALLNRLNPNKHRATEASQLATRTVMDFVEMSEGEGMDENELVRVFEHHPLLKDDKLFQRDTVMALYYYRTPKEAFLAELRAGAANDGVSNLGISLEG”, the protein production result is given as “not failed”.

Regarding “MNAPSLKEENALTITRVFDAPANLVFKVWTTPEHLARWWGPKGFTVPAITTDFREGGAWRGCIRSPEGQDYWAHGIYREIVAPSRIVLSFVWEEEGAIDTLITVTLEDVAGGTRLTFHQAPFTSAESRDSHAEGWSECMDRLVSYVAARKEEVQ”, the protein production result is on record as “failed”.

Consider “MNARHARYPFLGDARDAVEEAGVDLARVVTEDDAVVERARERVVSALTDGTIGEPAATVSTRVEVLSYPVARVLVSIVDESVLVRKYATAEADAAYDRFTADESTDTDLKSVSDTTRVSRDTLLSEFDLRAHVHATPDAHTVDVPTYLLLASSLRDDDWRLVNRALDDGRVPVTDAELDTLIREAIRERVADGLPLSVPDQIADALDEPVAAIQDALADLDLTREIDTVVPELFPPCMKHLLDQVQRGDHLPHHARFAITSFLSNVGLSTDEIVDIYEVNPGFGEEMTRYQTDHIQGDSSPTEYTAPSCATMKAYGNCVNPDDLCDAINHPLSYYEVKLDDGDDDDLADWRDREDDDSPD”, for which the protein production result is reported as “failed”.

Turning to “MNARSGDNVVLAILLSLLALVLFDMMGLIIKYLSPRYGAAELSAYRNFFGVFPSVIALWSSPGWHRAGRPWRIRQWRLGLMRGVYVTFAQFLFYYSLGKLAFATASTITYANAVFMTALAVPLLGERVGLMRWAAVLLGFAGVLLVMKPGSDSFTPDALAPLGAAFLYALTGVSARQMDSAVPSALINLYSVVAALVGALALALLSGGFTPLAQWSDLGWIAAMGGFGGTAVLCLVASYRMTEQSNLAPFSYFGIPIAFVAGWLVFDETPWADLFPGAFFIAGGGLMIVWRERIRSRAGRRISN”, the protein production result is “failed”.

With “MNASTSPLPASDQTLRGILLICAAVFLFASHDGLSKFLSGFYPIVMVVWARYLVHTLLMVAVFVPRNGLAVIRSRRPLMQLARALCLIGTSLFFTTGLRYLPLAEATAVNFLAPLLVTALSVPLLKEKVSLGQWLAVLTGFIGVLFIVRPGGALFTPAALFPLGSALCFGLYQLLTRMLANSDSPTTSNFLAGIFNTLIMSLLVPFFWQTPSLLHGLMMIALGGCGMGGHLLLTQAFRHAPPATLAPFSYGQIIFAGLLGLLVFGHVPDAWALLGILVICASGLVVAWRRGR”, the protein production result is “failed”.

Consider “MNATHDLQSTPSRLRRFACMMYEGVLLFGVVFIASYLFDTLTQSKHGLMLRDGRQVWLFLVIGLYFVLCWRRRGQTLPMKTWNIRLVDRDGQPPSTPRLVLRYVLAWPLPLGAAALVWLASSLTGWRSVDMFIVLAPFAIFAWSWVDPDGQFLHDRLLGTRLRNAPPRAARAVAGT”, for which the protein production result was “failed”.

“MNATLIDCCDPQKPSRVLFHFLILDAPSPSNLPTYIKELQHRGVRHLVRVCGPTYDATLVKSRGIDVHSWPFDDGAPPTRAVLDSWLKLLDTELARQQEDPSVPPPTIGVHCVAGLGRAPILVALALVEYGNVSALDAIALIREKRKGAINQTQMHWITKYKR”: the protein production entry is “not failed”.

For “MNATSTAPSSRHTLRSLAGDVFELLGSMRFAVSLLMFICIASIVGTVLAQNRPSNVYVDQFGPFWFEVFDKFSIWHVYNSWWFLLIMTFLVVSTSVCLIRNTPKMLREARSFREHVRASSLRAFPHRLQTEVAQPVSETAQGVTGLLGQFGYAVRERRDGDGIMLAAKKGSANRLGYIFAHSAMVIICIGGLLDSEAPVRLQVLFDGKQPIAINGEMARADIPDSALLSVNNPSYRANLWVPEGSNASLATIAVNDRSLVQPLPFSLRLKKFTVDYYSTGMPSRFLSLVEVTDPETGEMFDQTIEVNEPLRYKGVTVYQSSFDDGGSSVSLTGYPLVGAGDTPFKVDGVVGQTSEIGARIGDQPKSMKIEFTALRVINVEDFSGGQPGAQNLSLREHVASVAGSAAGKKNENLRNVGPRIDYKLIDDAGQAHEFQNYMLPVVLDGVPVFLSAVRNNPADDFQYLRIPADDQGSLAEFMRLRAALADPAARQEAARRFAERNAPSGTDRQPLETAAQRALATFAEGGLQAIADFLQANTAPDDLERAAGIVVRLVGASVAELRDIARARAGLPALPQSGPQADEAAQWSRVAVAALSDLAFYPAPVMFSLTDFQERQGSVFQVARTPGKNAVYLGCVLLILGIFAMFYIRDRRVWVWVKPAADGAGSSIEAAMTSQKRTLDFNQEFDRLREALLRQSKP”, the protein production entry is “failed”.

For the sequence “MNDDKDVVIDQIYYISTDPSATTYPTTFSVSLVDNSVAGRPFFYVVGKSTMRVDRNTTLRVEEDSKLVEKYNETYGKKYLPFPEGTYSFSTNEVTINQGDNFSSDTIFISFSNWDKLSKIDKYLLPVSLKAVDDKGAVSMDRNLIYFIADFSTTNTGYNKPAAWKPLDRTDWDVSFSYAYGYDEAQFGGRLAVDGDVSTTWFTWGVVSAGECWWATTLPAPTHLTGFSLTRQTTFGSSYNVREAKVKVKKEGDTEWTEAGLFRFGSFKGNDPQYAVFIPAVENVKEFRIDIVSPADFTGFAELDLYQLEHHHHHH”, the protein production entry is reported as “failed”.

These data come from a protein production outcome set (Wang et al. 2014).
